This is an account of results in PMC6646387, “Identification of intracellular cavin target proteins reveals cavin-PP1alpha interactions regulate apoptosis” (Nature Communications, 2019).

The assay has as its target T1, GFP-PP1α (UniProt P62136 1-330).
T1 construct: serine/threonine-protein phosphatase PP1alpha catalytic subunit (PP1α); construct provided by the Trinkle-Mulcahy Laboratory; printed both as GFP-PP1α and PP1α-GFP; also called PP1α-GFP; PP1alpha-GFP; source: MCF-7 or A431, transfected, in lysate
Kind of assay: single-molecule coincidence detection; PNS fraction of MCF-7 cells cotransfected with GFP-PP1α and Cherry-Cavin1 or Cherry-Cavin3, in PBS, diluted to about 1 nM; two-colour confocal detection; C = mCherry/(GFP+mCherry); oligomeric state from burst brightness. The settings on record: partners not purified.

T1 sequence (P62136 whole entry): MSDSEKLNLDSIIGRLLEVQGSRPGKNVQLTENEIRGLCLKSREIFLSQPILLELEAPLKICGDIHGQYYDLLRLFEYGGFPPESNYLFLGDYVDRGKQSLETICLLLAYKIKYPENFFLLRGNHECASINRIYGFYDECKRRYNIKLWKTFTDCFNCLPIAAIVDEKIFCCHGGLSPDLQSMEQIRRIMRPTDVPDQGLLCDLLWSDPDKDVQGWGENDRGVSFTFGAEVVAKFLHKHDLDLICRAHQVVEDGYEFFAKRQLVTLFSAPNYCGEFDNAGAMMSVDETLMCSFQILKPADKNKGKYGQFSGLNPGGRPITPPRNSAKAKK

B1: mCherry-Cavin1 (natural protein, mouse, UniProt O54724 1-392, looked up)
chain: MEDVTLHIVERPYSGFPDASSEGPEPTQGEARATEEPSGTGSDELIKSDQVNGVLVLSLLDKIIGAVDQIQLTQAQLEERQAEMEGAVQSIQGELSKLGKAHATTSNTVSKLLEKVRKVSVNVKTVRGSLERQAGQIKKLEVNEAELLRRRNFKVMIYQDEVKLPAKLSVSKSLKESEALPEKEGDELGEGERPEDDTAAIELSSDEAVEVEEVIEESRAERIKRSGLRRVDDFKKAFSKEKMEKTKVRTRENLEKTRLKTKENLEKTRHTLEKRMNKLGTRLVPVERREKLKTSRDKLRKSFTPDHVVYARSKTAVYKVPPFTFHVKKIREGEVEVLKATEMVEVGPEDDEVGAERGEATDLLRGSSPDVHTLLEITEESDAVLVDKSDSD
notes: Murine Cavin-1 (PTRF, caveolae-associated protein 1); oligomeric in MCF-7 cells by burst brightness; also called mCherry-tagged Cavin1; source: MCF-7, transfected, in lysate (cytosolic or PNS fraction)
For B1, the coincidence ratio was determined as 0.7.

B2: mCherry-Cavin3 (natural protein, mouse, UniProt Q91VJ2 1-260, looked up)
chain: MGESALEPGPVPETPAGGPVHAVTVVTLLEKLATMLEALRERQGGLAERQGGLAGSVRRIQSGLGALSRSHDTTSNTLTQLLAKAERVGSHADAAQERAVRRAAQVQRLEANHGLLVARGKLHVLLFKEETEIPARAFQKVPELLGPEDQLVLGPDQPEDEVGESSEEEPVESRAQRLRRTGLQKVQSLKRALSSRKAAQPTPVKPPRVGPVRSSEGPSEGQPAAQPEMESELETALEPEPPQPTKEDPEKPVLQIESAA
notes: Murine Cavin-3 (PRKCDBP), amplified from NIH-3T3 fibroblast cDNA, in an mCherry vector; also called mCherry-tagged Cavin3; source: MCF-7, transfected, in lysate (cytosolic or PNS fraction)
B2: the coincidence ratio came to 0.5 and the “stoichiometry N” value was 1.

For orientation: stoichiometry N means the number of molecules, sites or subunits per partner or assembly.
